# Laboratory results reported in patent publication US20040103447A1, “Schizophrenia-like mental disease model animal, method of constructing the same and use thereof” (priority 2001, published 2004).
# B1: IL-1α: human recombinant interleukin 1α, a cytokine, dissolved in physiological saline and administered to neonatal rats to induce the model (protein, UniProt P01583 113-271, looked up)
# Interleukin-1 alpha: SAPFSFLSNVKYNFMRIIKYEFILNDALNQSIIRANDQYLTAAALHNLDEAVKFDMGAYKSSKDDAKITVILRISKTQLYVTAQDEDQPVLLKEMPEIPKTITGSETNLLFFWETHGTKNYFTSVAHPNLFIATKQDYWVCLAGGPPSITDFQILENQA
# What was measured:
# [1] = test system: SD rats; test: Prepulse inhibition (PPI) in startle response after neonatal subcutaneous administration; type: in vivo, rat; settings: 75 db prepulse, 120 db pulse after 100 ms, 1.0 mg/kg s.c. 10 times from 2 days after birth, compared to cytochrome-C group
# Source text: The prepulse inhibition in startle response is a test for perception-response ability using a startle response, which can be commonly evaluated in human and animals, as an index. This test is characterized in that abnormalities in attention and ability to process information in brain, which are considered to be the main disease state of schizophrenia, can be scientifically and objectively evaluated. The test itself is a measurement of decrease in a fright startle response to a big sound, which is attributable to the previous application of a weak sound stimulus (prepulse) of the level incapable of causing a fright startle response, 30-150 mSec before causing a fright startle response by making a noise of about 120 db. The decrease produced by the prepulse is called a prepulse inhibition, which is known to indicate abnormal decrease in schizophrenia patients and schizophrenia animal models (Braff D. L., Geyer M. A., Arch. Gen. Psychiatry, 47, 181-188, 1990).
# As the animal, SD rats (Japan SLC) were used from 2 days after birth. As a reagent, human recombinant interleukin 1α and cytochrome-C (Sigma) were each dissolved in physiological saline at 40 μg/mL and used. […] From 21 days after birth, startle response intensity and prepulse inhibition were measured with an apparatus of measuring startle response of small animal (San Diego Instruments). […]
# [2] = test system: SD rats; test: Startle response intensity to 120 db sound after neonatal subcutaneous administration; type: in vivo, rat; settings: 1.0 mg/kg s.c. 10 times from 2 days after birth, compared to cytochrome-C administration group
# Method: As the animal, SD rats (Japan SLC) were used from 2 days after birth. As a reagent, human recombinant interleukin 1α and cytochrome-C (Sigma) were each dissolved in physiological saline at 40 μg/mL and used. The reagents were subcutaneously administered 10 times in total (up to 11 days after birth) into the neck at 25 μL (each 1.0 mg/kg) per 1 g of rat body weight […] from 2 days after birth. From 21 days after birth, startle response intensity and prepulse inhibition were measured with an apparatus of measuring startle response of small animal (San Diego Instruments). That is, as a sensory stimulus to induce a startle response, a sound stimulation was used, and as a prepulse stimulation, a sound pressure stimulus of 75 db was given, which was 5 db higher than the environmental noise (background noise) level. After 100 milli-seconds, a pulse stimulus of a sound pressure of 120 db was given. The ratio of decrease in the startle response when prepulse was combined to the startle response with 120 db alone was considered as the prepulse inhibition (PPI).
molecule,measurement,setting,value
B1,prepulse inhibition,"[1]; 22 days after birth, FIG. 2B",such abnormality was not found
same,prepulse inhibition,"[1]; 60 days after birth, p<0.05, FIG. 2A",significant decrease
same,intensity of startle response to the sound pressure of 120 db,"[2]; 22 days after birth, FIG. 1B",such abnormality was not found
same,intensity of startle response to the sound pressure of 120 db,"[2]; 60 days after birth, FIG. 1A",significant increase
